Experimental findings from article PMC3741208 are described below.

The term Ki denotes a measure of affinity in units of concentration, obtained from inhibition or displacement. Low readings indicate higher affinity, high ones lower affinity.

For test [1], the target named is bovine α-thrombin (bovine).
Test [2] has as its target bovine α-thrombin (bovine). Description: enzyme inhibition kinetics (chromogenic substrate); 1 nM bovine α-thrombin, 0-200 µM Tos-Gly-Pro-Arg-p-nitroanilide, 0-800 nM madanin; 37 °C, 50 mM Tris-HCl pH 8.0, 50 mM NaCl, 1 mg/ml bovine serum albumin; fitted to the competitive inhibition model.
The target of test [3] is human α-thrombin (human).

On to “madanin-2 (mature, recombinant) (natural protein)”, for which the inhibition of thrombin amidolytic activity (%), 1 nM thrombin, 50 µM Tos-Gly-Pro-Arg-p-nitroanilide, 1 µM inhibitor, after 120 min in test [1] is 47.2%. Moreover, in test [2], the Ki came out at 31.6 nM.
In test [3], madanin-1 fragment 22-54 (peptide) had a prolongation (fold) of thrombin time of human plasma, 10 µM fragment (20 s against 17 s); competition with fibrinogen for thrombin; species of the assay's thrombin not stated of 1.18 fold. In test [1], this substance displayed an inhibition of thrombin amidolytic activity (%), 1 nM thrombin, 50 µM Tos-Gly-Pro-Arg-p-nitroanilide, 1 µM fragment, after 120 min of 5.77%.
Regarding madanin-2 fragment 22-55 (peptide), the prolongation (fold) of thrombin time of human plasma, 10 µM fragment (18 s against 17 s); competition with fibrinogen for thrombin; species of the assay's thrombin not stated in test [3] amounted to 1.06 fold. The same substance returned an inhibition of thrombin amidolytic activity (%), 1 nM thrombin, 50 µM Tos-Gly-Pro-Arg-p-nitroanilide, 1 µM fragment, after 120 min in test [1] of 6.11%.
In test [1], “madanin-1 (mature, recombinant) (natural protein)” had an inhibition of thrombin amidolytic activity (%), 1 nM thrombin, 50 µM Tos-Gly-Pro-Arg-p-nitroanilide, 1 µM inhibitor, after 120 min of 43.8%. Besides, the Ki in test [2] turned out to be 55.6 nM.
As to madanin-1 fragment 1-21 (peptide), the prolongation (fold) of thrombin time of human plasma, 10 µM fragment (17 s against 17 s); competition with fibrinogen for thrombin; species of the assay's thrombin not stated in test [3] is 1 fold. This substance also had an inhibition of thrombin amidolytic activity (%), 1 nM thrombin, 50 µM Tos-Gly-Pro-Arg-p-nitroanilide, 1 µM fragment, after 120 min in test [1] of 4.6%.
Take madanin-2 fragment 1-21 (peptide): the prolongation (fold) of thrombin time of human plasma, 10 µM fragment (18 s against 17 s); competition with fibrinogen for thrombin; species of the assay's thrombin not stated in test [3] stood at 1.06 fold. Besides, the inhibition of thrombin amidolytic activity (%), 1 nM thrombin, 50 µM Tos-Gly-Pro-Arg-p-nitroanilide, 1 µM fragment, after 120 min in test [1] came out at 5.83%.
In test [3], madanin-2 fragment 56-61 (peptide) showed a prolongation (fold) of thrombin time of human plasma, 10 µM fragment (17 s against 17 s); competition with fibrinogen for thrombin; species of the assay's thrombin not stated of 1 fold.
Substance madanin-1 fragment 55-60 (peptide) gave a prolongation (fold) of thrombin time of human plasma, 10 µM fragment (17 s against 17 s); competition with fibrinogen for thrombin; species of the assay's thrombin not stated in test [3] of 1 fold.
